As a reminder, the EC50 is the concentration giving half of the maximal effect. What is called Kd is the constant that tells how readily two partners part at equilibrium.

Read-outs that look alike come from different tables or passages of the source.

The values that follow come from patent US11608380B2, “Anti-EGFRvIII antibodies and uses thereof” (REGENERON PHARMACEUTICALS, INC., priority 2014, dated 2023).

For experiment [1], the system named is EGFRvIII-mFc. The experiment can be described thus: SPR (BIACORE) binding kinetics, mAb-capture format. Further details: species or system human. The conditions noted are these: 37° C., NB=no binding; for ka: analyte EGFRvIII-mFc (dimeric); for kd: analyte EGFRvIII-mFc.
For experiment [2], the target named is T1, EGFR-mFc (Homo sapiens, UniProt P00533). The experiment in a line: SPR (BIACORE) binding kinetics, receptor-capture format. The conditions noted are these: 37° C., EGFR-mFc captured, NB=no binding. The protocol:
(§1) Measurements were conducted on a T100 BIACORE™ instrument. […] In the receptor-capture format, either EGFRvIII-mFc or EGFR-mFc, was captured on the BIACORE™ chip and the respective antibodies flowed over. Kinetic association (ka) and dissociation (kd) rate constants were determined by processing and fitting the data to a 1:1 binding model using Scrubber 2.0 curve fitting software. Binding dissociation equilibrium constants (KD) and dissociative half-lives (t1/2) were calculated from the kinetic rate constants as: KD (M)=kd/ka; and t1/2 (min)=ln 2/(60*kd).
On the technique in general: Surface plasmon resonance follows binding to a sensor surface in real time, without labels.

The target in experiment [3] is T1, EGFR-mFc. The experiment in a line: SPR (BIACORE) binding kinetics, mAb-capture format. Conditions: 37° C., NB=no binding.
A further experiment concerns the target EGFRvIII-mmh (Homo sapiens, UniProt P00533, DELINS30-297G). The experiment in a line: SPR (BIACORE) binding kinetics, mAb-capture format. Conditions: 37° C., NB=no binding; for ka: analyte EGFRvIII-mmh (monomeric); for kd: analyte EGFRvIII-mmh. Here is the method: as §1
In the next experiment the target is EGFR-mmh (Homo sapiens, UniProt P00533). The experiment can be described thus: SPR (BIACORE) binding kinetics, mAb-capture format. Conditions: 37° C., NB=no binding.
Experiment [4] deals with EGFRvIII-mFc. The format is binding, human. The conditions noted are these: 37° C., receptor-capture, EGFRvIII-mFc captured. Here is the method:
as §1

Experiment [5] concerns N-term Biotin control peptide. The experiment can be described thus: Antibody specificity by ELISA. Conditions: ELISA binding, irrelevant peptide with N-terminal biotin. Here is the method:
(§2) To further characterize anti-hEGFRvIII mAbs, their binding specificity was examined by ELISA. […] For the junctional peptides that were linked to biotin either at C-terminal (SEQ ID NO:149) or N-terminal (SEQ ID NO:150) via a linker, plates were pre-coated with avidin. Also, coated was an irrelevant peptide (control peptide) with or without biotin at its N-terminal. Anti-EGFRvIII antibodies as well as an isotype control antibody were added to coated plates and allowed to incubate for 1 hour at 25° C. The plates were then washed and bound anti-EGFRvIII mAbs were detected with anti-human Fc antibodies conjugated with horse-radish peroxidase (HRP). Plates were developed with a tetra-methyl-benzidine (TMB) substrate solution to produce a colorimetric reaction and neutralized with sulfuric acid before reading absorbance at 450 nm on a VICTOR™ X5 plate reader. Data analysis used a sigmoidal dose-response model within PRISM™ software. […] NT: Not tested. Controls I-III: As described above.

A further experiment concerns Control peptide. The experiment in a line: Antibody specificity by ELISA. The conditions noted are these: ELISA binding, irrelevant peptide. Here is the method: as §2
The test system of another experiment is HEK293 cells. The experiment can be described thus: FACS cell binding selectivity. The format is cell-based. The conditions noted are these: 10 μg/ml. Here is the method:
To determine the specificity of the anti-EGFRvIII mAbs, their binding to HEK293, HEK293 cells expressing EGFRvIII (HEK293/EGFRvIII) and A431 cells, was analyzed by fluorescence activated cell sorting (FACS). HEK293/EGFRvIII cells were prepared by transfecting HEK293 cells with neomycin resistant DNA vectors constitutively expressing full-length hEGFRvIII (SEQ ID NO:147) using LIPOFECTAMINE™ 2000 transfection reagent (INVITROGEN™). At two days post-transfection, cells were placed under G418 selection for approximately two weeks. Populations positively expressing EGFRvIII were isolated via fluorescence activated cell sorting (FACS). The HEK293 cells expressing ˜3×10^6 copies of EGFRvIII per cell were used in the experiment. Briefly, the anti-EGFRvIII antibodies at 10 μg/ml were incubated with cells for 30 minutes at room temperature, washed, incubated with secondary antibody, i.e., phycoerythrin (PE)-labeled goat F(ab′)2 against human IgG (cat #109-116-170, Jackson ImmunoResearch Laboratories), followed by a final wash before FACS analysis. In another set of experiment, anti-EGFRvIII antibodies were directly conjugated via their lysine residues with the fluorescent dye, ALEXA FLUOR® 488 Dye (INVITROGEN™), thereby eliminating the step using the secondary antibody. […] Controls I, II, III, IV and V are described above. MFI: Mean Fluorescence Intensity.

For another experiment, the target named is N-term biotin J-peptide (Homo sapiens, UniProt P00533, DELINS30-297G). The experiment in a line: Antibody specificity by ELISA. Conditions: ELISA binding, avidin pre-coated plates. Here is the method: (§3) To further characterize anti-hEGFRvIII mAbs, their binding specificity was examined by ELISA. […] For the junctional peptides that were linked to biotin either at C-terminal (SEQ ID NO:149) or N-terminal (SEQ ID NO:150) via a linker, plates were pre-coated with avidin. Also, coated was an irrelevant peptide (control peptide) with or without biotin at its N-terminal. Anti-EGFRvIII antibodies as well as an isotype control antibody were added to coated plates and allowed to incubate for 1 hour at 25° C. The plates were then washed and bound anti-EGFRvIII mAbs were detected with anti-human Fc antibodies conjugated with horse-radish peroxidase (HRP). […] Data analysis used a sigmoidal dose-response model within PRISM™ software.

The next experiment has as its target C-term biotin J-peptide (Homo sapiens, UniProt P00533, DELINS30-297G). The experiment in a line: Antibody specificity by ELISA. The conditions noted are these: ELISA binding, avidin pre-coated plates. Here is the method:
as §3
On the technique in general: In an ELISA, binding on a coated surface is turned into a signal by an enzyme label.

Experiment [6] concerns the target junctional peptide (J-peptide) (Homo sapiens, UniProt P00533, DELINS30-297G). The experiment in a line: Antibody specificity by ELISA. The conditions noted are these: ELISA binding. Here is the method:
as §3

Another experiment deals with HEK293/EGFRvIII cells. The experiment can be described thus: Internalization of anti-EGFRvIII mAbs. The format is cell-based, human. Conditions: 37° C., 1 h. Here is the method:
Anti-EGFRvIII mAbs (10 ug/ml) were incubated with HEK293/[…] (see Example 7, supra) cells for 2 hours on ice followed by two PBS washes. Cells were then subjected to a 30-min incubation on ice with secondary DYLIGHT™ 488-conjugated anti-human IgG Fab fragments (Jackson ImmunoResearch Laboratories) followed by two additional PBS washes. Antibodies were allowed to internalize for 1 h at 37° C. in internalization buffer (PBS+FBS) or remained at 4° C. Cells were fixed in 4% formaldehyde, and nuclei stained with DRAQ5® DNA dye (Cell Signaling Technology, Inc.). Images were acquired at 40× on the IMAGEXPRESS™ high content system (Molecular Devices) and internalized vesicles were quantitated using Columbus software (Perkin Elmer).

The mark [7] stands for this setting: directly labeled (ALEXA FLUOR 488) antibodies.

Sequence of EGFRvIII-mFc (as listed by the source): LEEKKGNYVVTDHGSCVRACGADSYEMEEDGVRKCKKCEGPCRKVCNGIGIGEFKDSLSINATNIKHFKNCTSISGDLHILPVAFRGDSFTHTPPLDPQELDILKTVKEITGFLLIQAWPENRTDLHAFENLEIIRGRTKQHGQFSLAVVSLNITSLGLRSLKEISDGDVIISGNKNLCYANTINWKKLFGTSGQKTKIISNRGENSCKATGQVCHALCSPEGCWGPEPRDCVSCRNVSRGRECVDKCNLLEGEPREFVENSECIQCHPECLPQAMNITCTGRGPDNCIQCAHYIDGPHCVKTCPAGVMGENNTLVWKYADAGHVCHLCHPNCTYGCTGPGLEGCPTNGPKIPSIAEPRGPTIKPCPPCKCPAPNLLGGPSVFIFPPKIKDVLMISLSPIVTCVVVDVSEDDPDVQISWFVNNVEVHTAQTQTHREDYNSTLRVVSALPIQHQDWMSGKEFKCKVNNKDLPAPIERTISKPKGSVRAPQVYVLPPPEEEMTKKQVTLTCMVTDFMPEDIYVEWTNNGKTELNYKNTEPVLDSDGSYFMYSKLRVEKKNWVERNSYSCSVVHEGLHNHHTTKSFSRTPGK

B1: H1H2195P: human IgG1 Fc anti-EGFRvIII antibody; HCVR/LCVR SEQ ID NOs 18/26 (antibody, V domains shown)
VH: QVQLVESGGGVVQPGRSRRLSCVGSGFIFSSYGMHWVRQAPGKGLEWVALIFYDGSNEYYVDSVKGRFTISRDNSKNTLYLQMNSLRAEDTAVYYCAREGYSQRYKYYFGMDVWGQGTTVTVSS
VL: DIQMTQSPSSVSASVGDRVTITCRASQGISSWLAWYQQQPGKAPKLLIYAASSLQSGVPSRFSGSGSGTDFTLTISSLQPEDFATYYCQQTNSFPLTFGGGTKVEIKR
modifications: human IgG1 Fc
In the case of B1, the ka is 102000 M⁻¹ s⁻¹ in the experiment with EGFRvIII-mFc [1]; 225000 M⁻¹ s⁻¹ in the experiment with EGFR-mFc [2]; 92000 M⁻¹ s⁻¹ with EGFR-mFc [3] (analyte EGFR-mFc (dimeric)); 64800 M⁻¹ s⁻¹ with EGFRvIII-mmh; 56600 M⁻¹ s⁻¹ in the experiment with EGFR-mmh (analyte EGFR-mmh (monomeric)); 237000 M⁻¹ s⁻¹ in the experiment on EGFRvIII-mFc [4]. In addition, the kd on EGFRvIII-mFc [1] came out at 0.000113 s⁻¹; in the experiment with EGFR-mFc [2] it was 5.2e-05 s⁻¹; with EGFR-mFc [3] (analyte EGFR-mFc), 0.000189 s⁻¹; with EGFRvIII-mmh, 0.000694 s⁻¹; with EGFR-mmh (analyte EGFR-mmh), 0.000523 s⁻¹; on EGFRvIII-mFc [4], 2.53e-05 s⁻¹. Further, the EC50 (in experiment [5]; with Control peptide; with N-term biotin J-peptide; with C-term biotin J-peptide; in experiment [6]) was more than 10 nM each time. Besides, the “Parental HEK293 MFI” value with HEK293 cells (secondary PE-labeled anti-Fc) is on record as 1176.

B2: H1H1912N: human IgG1 Fc anti-EGFRvIII antibody with variable domains 1912; HCVR/LCVR SEQ ID NOs 66/74 (antibody, V domains shown)
VH: EVQLVESGGGLVQPGRSLRLSCAASGFTFDDYAMHWVRQVPGKGLEWVSGISWNSGSIGYADSVKGRFTISRDNAKNSLYLQMNSLRAEDTALYYCAKDIHDYGKDYYYYYGMDVWGQGTTVTVSS
VL: EIALTQSPGTLSLSPGERATLSCRASQSVSSTYLAWYQQKPGQAPRLLIYGASSRATGIPDRFSGSGSGTDFTLTISRLEPEDFAVYYCQQYDSSPITFGQGTRLEIK
modifications: human IgG1 Fc
As for B2, the internalization entry in the experiment with HEK293/EGFRvIII cells was “Internalization was also observed”. For the same molecule, the ka turned out to be 20400 M⁻¹ s⁻¹ in the experiment with EGFRvIII-mFc [1], 39900 M⁻¹ s⁻¹ with EGFR-mFc [2], 18300 M⁻¹ s⁻¹ with EGFRvIII-mmh and 99000 M⁻¹ s⁻¹ with EGFRvIII-mFc [4]. Moreover, the kd amounted to 0.000971 s⁻¹ on EGFRvIII-mFc [1], 0.000914 s⁻¹ with EGFR-mFc [2], 0.0164 s⁻¹ in the experiment with EGFRvIII-mmh and 0.000537 s⁻¹ on EGFRvIII-mFc [4]. Besides, the EC50 (in experiment [5]; in the experiment on Control peptide; in the experiment with N-term biotin J-peptide; in the experiment with C-term biotin J-peptide; in [6]) was more than 10 nM each time. In the experiment with HEK293 cells (setting [7]), the “Parental HEK293 MFI” value came to 3727.

B3: H1H1911N: human IgG1 Fc anti-EGFRvIII antibody with variable domains 1911; HCVR/LCVR SEQ ID NOs 50/58 (antibody, V domains shown)
VH: QVQLVESGGGVVQPGRSLRLSCAASGFTFSRYGIHWVRQAPGKGLEWVAVIWHDGSNKYYADSVKGRFTISRDNSKNTLYLQMTSLRAEDTAVYYCARDGLEIRDHYYYGMDVWGQGTTVTVSS
VL: DIQMTQSPSTLSASVGDRVTITCRASQSTSSWLAWYQQKPGKAPTLLIYKASSLESGVPSKFSGSGSGTEFTLTISSLQPDDFATYYCQQYNRYSRTFGQGTKVEIK
modifications: human IgG1 Fc
B3: in the experiment on HEK293/EGFRvIII cells, the internalization result was “Internalization was also observed”. Besides, the ka in the experiment with EGFR-mFc [2] was found to be 7770 M⁻¹ s⁻¹; in the experiment with EGFRvIII-mFc [4], 32900 M⁻¹ s⁻¹. The kd came out at 0.00174 s⁻¹ with EGFR-mFc [2] and 0.000643 s⁻¹ on EGFRvIII-mFc [4]. Also, the EC50 (in experiment [5]; in the experiment with Control peptide; with N-term biotin J-peptide; in the experiment with C-term biotin J-peptide; in experiment [6]) was more than 10 nM in each case. The “Parental HEK293 MFI” value with HEK293 cells (setting [7]) was 3593; in the experiment with HEK293 cells (secondary PE-labeled anti-Fc) it was 1812.

B4: H1H1913N: human IgG1 Fc anti-EGFRvIII antibody with variable domains 1913; HCVR/LCVR SEQ ID NOs 130/138 (antibody, V domains shown)
VH: QVQLQQWGAGLLKPSETLSLTCAVYGGSFSGDYWSWIRQSPGKGLEWIGEINHSGSTNYNPSLKSRVTISIDTSKNQFSLKLSSVTAADTAVYYCARGGGDYYYGMDVWGLGTTVTVSS
VL: AIQMTQSPSSLSASVGDRVTITCRASQGIGNDLGWYQQKPGKAPNLLIYATSSLQSGVPSRFSGSGSGTDFTLTISSLQPEDFATYYCLQDYNYPWTFGQGTKVEIK
modifications: human IgG1 Fc
Consider B4, for which the ka in the experiment on EGFRvIII-mFc [1] came to 14000 M⁻¹ s⁻¹; with EGFR-mFc [2] it was 5930 M⁻¹ s⁻¹; with EGFRvIII-mmh it was 163 M⁻¹ s⁻¹; with EGFRvIII-mFc [4], 63000 M⁻¹ s⁻¹. Moreover, the kd at EGFRvIII-mFc [1] worked out at 0.000316 s⁻¹; with EGFR-mFc [2], 1e-06 s⁻¹; in the experiment with EGFRvIII-mmh it was 0.00114 s⁻¹. Besides, the Kd at EGFRvIII-mFc [4] came out at 0.0158 nM. In addition, the “Parental HEK293 MFI” value in the experiment with HEK293 cells (setting [7]) is on record as 4801.
